In this test the target is T1, Gal4 DNA binding domain (DBD) fused to the RXR ligand binding domain (GBD:RXR) (yeast; human, UniProt P04386 1-147; P19793 203-462, limits assumed).
T1 construct: Expressed inside yeast (PJ69-4A or MaV103) from plasmid pGBDRXR; The order DBD then LBD follows the name GBD:RXR; also called wild-type GBD:RXR; product of pGBDRXR
In words: yeast two-hybrid type growth selection (chemical complementation), PJ69-4A on SC-Ade plates with 10^-5 M 9cRA.

Experimental: The same colony was used for streaking on all the plates, ending with a SC plate to confirm efficient transfer of the cells to each plate. Both selective and non-selective plates were incubated at 30° C. for two days. Each set of genetic selection plates was replicated at least once.

B1: Gal4 activation domain (GAD) without a coactivator domain (other, yeast, UniProt P04386 768-881, looked up)
chain: ANFNQSGNIADSSLSFTFTNSSNGPNLITTQTNSQALSQPIASSNVHDNFMNNEITASKIDDGNNSKPLSPGWTDQTAYNAFGITTGMFNTTTMDDVYNYLFDDEDTPPNPKKE
notes: range 768-881; Control expressed from pGAD10; also called Gal4 AD only; product of pGAD10
Turning to B1, the binding result was “no binding”.

(Values after US20110027820A1 (GEORGIA TECH RESEARCH, published 2011).)
